Patent US20230110958A1 (Regeneron, published 2023)
Each block holds one binder with its values, some of them ahead of it.

Experiments:
Experiment in all cases: cell-based or functional assay
[1] = target: human IL27 receptor (IL27Ra and gp130) on NCI-H929/GAS-Luc cells (human) (UniProt Q6UWB1)
[2] = target: T1, murine IL27 receptor (IL27Ra and gp130) on mouse cells (MC9/STAT3-Luc reporter cells; splenic CD4+ T cells) (mouse, UniProt O70394 25-623; Q00560 23-917)
T1 sequence (looked up) 1: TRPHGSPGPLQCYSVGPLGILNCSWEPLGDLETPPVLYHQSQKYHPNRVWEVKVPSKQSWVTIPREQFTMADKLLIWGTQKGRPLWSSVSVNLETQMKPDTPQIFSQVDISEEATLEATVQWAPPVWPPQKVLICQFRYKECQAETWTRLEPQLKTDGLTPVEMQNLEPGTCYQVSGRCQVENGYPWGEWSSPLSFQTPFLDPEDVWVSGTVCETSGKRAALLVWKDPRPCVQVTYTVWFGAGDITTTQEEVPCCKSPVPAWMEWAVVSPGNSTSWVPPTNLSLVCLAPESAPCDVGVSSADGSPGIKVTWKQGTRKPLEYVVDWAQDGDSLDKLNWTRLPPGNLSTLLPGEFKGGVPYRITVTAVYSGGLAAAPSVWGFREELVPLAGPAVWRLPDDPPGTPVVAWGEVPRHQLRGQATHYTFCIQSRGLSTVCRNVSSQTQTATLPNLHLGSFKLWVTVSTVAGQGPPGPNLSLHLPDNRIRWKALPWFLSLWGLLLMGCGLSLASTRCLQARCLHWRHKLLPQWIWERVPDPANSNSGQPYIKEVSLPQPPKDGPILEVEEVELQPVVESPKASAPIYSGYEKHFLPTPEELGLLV
T1 sequence (looked up) 2: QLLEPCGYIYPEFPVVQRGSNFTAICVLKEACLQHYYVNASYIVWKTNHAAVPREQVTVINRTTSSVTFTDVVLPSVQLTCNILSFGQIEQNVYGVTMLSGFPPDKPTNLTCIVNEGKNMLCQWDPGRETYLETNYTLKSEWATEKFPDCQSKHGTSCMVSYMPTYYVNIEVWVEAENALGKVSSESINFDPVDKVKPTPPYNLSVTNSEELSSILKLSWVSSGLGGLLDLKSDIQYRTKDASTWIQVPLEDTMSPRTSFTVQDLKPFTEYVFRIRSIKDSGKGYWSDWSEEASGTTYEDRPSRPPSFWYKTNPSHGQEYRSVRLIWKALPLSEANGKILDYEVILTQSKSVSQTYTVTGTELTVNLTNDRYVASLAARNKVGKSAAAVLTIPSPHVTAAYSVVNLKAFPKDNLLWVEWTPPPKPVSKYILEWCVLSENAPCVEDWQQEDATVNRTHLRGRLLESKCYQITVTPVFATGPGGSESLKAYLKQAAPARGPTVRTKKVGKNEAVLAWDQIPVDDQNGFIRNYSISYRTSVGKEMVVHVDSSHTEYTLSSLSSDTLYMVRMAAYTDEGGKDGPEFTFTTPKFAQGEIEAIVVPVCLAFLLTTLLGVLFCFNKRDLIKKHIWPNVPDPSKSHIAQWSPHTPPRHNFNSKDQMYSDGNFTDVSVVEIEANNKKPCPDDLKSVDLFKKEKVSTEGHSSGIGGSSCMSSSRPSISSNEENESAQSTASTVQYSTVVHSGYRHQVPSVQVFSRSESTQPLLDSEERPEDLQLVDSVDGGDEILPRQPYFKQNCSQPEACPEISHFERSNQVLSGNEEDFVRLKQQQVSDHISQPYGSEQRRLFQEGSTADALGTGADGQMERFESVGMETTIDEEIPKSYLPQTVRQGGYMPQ

[3] = target: T1, murine IL27 receptor (IL27Ra and gp130) …; remark: listed apart in the source

Sequence of human IL27 receptor (IL27Ra and gp130) on NCI-H929/GAS-Luc cells (human) (Q6UWB1 33-636, chain 1 of 2): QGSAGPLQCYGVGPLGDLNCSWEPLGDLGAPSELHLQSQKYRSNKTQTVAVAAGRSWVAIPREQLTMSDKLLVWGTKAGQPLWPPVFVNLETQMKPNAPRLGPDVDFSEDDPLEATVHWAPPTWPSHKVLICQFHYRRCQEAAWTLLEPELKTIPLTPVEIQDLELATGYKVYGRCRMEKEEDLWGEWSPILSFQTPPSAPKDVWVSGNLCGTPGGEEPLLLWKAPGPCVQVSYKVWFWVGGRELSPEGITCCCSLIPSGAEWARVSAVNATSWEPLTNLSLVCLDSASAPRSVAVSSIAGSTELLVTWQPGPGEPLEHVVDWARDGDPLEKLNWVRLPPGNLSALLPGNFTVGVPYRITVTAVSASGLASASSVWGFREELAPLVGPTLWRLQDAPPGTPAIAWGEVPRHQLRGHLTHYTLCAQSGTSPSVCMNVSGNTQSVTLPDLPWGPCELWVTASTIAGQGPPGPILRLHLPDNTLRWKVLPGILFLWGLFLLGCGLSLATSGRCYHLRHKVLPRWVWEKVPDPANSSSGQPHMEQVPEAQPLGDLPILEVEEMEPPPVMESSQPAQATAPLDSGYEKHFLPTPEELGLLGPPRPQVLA
Sequence of human IL27 receptor (IL27Ra and gp130) on NCI-H929/GAS-Luc cells (human) (chain, as listed by the source, chain 2 of 2): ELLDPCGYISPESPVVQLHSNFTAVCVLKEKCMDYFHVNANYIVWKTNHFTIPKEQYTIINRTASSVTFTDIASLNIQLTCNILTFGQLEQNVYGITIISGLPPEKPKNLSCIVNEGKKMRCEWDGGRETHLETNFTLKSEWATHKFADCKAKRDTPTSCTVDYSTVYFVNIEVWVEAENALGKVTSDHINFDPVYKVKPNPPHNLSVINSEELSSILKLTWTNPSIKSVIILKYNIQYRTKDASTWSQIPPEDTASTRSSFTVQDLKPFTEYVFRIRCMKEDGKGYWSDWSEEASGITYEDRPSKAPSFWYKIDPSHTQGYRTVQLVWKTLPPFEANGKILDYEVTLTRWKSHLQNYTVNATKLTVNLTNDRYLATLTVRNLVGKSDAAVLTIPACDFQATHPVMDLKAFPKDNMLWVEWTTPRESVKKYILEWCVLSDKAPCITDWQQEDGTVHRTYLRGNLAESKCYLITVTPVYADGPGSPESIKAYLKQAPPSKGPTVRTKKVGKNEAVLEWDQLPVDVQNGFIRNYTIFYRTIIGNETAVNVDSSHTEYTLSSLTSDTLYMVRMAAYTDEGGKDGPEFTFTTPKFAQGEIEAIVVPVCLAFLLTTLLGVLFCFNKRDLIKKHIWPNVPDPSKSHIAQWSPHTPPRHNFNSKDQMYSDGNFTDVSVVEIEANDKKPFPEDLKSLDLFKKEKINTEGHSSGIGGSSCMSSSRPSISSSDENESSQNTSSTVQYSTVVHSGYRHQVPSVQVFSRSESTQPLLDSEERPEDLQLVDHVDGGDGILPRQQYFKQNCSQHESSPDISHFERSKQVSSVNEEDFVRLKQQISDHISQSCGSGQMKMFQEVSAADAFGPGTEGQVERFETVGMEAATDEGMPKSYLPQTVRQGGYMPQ

- EC50 (M), GAS luciferase, NCI-H929/GAS-Luc cells [1]: 3.34e-10 M
- FOLD INDUCTION, GAS luciferase, NCI-H929/GAS-Luc cells [1]: 12.3 fold
B1: Recombinant human IL27 (R&D Systems cat# 2526-IL-010/CF), Human EBI3-…-Human p28-6-His tag (ligand)
chain: RKGPPAALTLPRVQCRASRYPIAVDCSWTLPPAPNSTSPVSFIATYRLGMAARGHSWPCLQQTPTSTSCTITDVQLFSMAPYVLNVTAVHPWGSSSSFVPFITEHIIKPDPPEGVRLSPLAERQLQVQWEPPGSWPFPEIFSLKYWIRYKRQGAARFHRVGPIEATSFILRAVRPRARYYVQVAAQDLTDYGELSDWSLPATATMSLGKGSGSSRGGSGSGGSGGGGSKLAGVWGFPRPPGRPQLSLQELRREFTVSLHLARKLLSEVRGQAHRFAESHLPGVNLYLLPLGEQLPDVSLTFQAWRRLSDPERLCFISTTLQPFHALLGGLGTQGRWTNMERMQLWAMRLDLRDLQRHLRFQVLAAGFNLPEEEEEEEEEEEEERKGLLPGALGSALQGPAQVSWPQLLSTYRLLHSLELVLSRAVRELLLLSKAGHSVWPLGFPTLSPQPHHHHHH

- EC50, luciferase activity, MC9/STAT3-Luc reporter cells [2]: ~3.2 pM
- EC50, phosphorylation of STAT1 in CD4+ T-cells [2]: ~0.0224 µg/mL
B2: IL27M2, Mouse p28-(GGGGS)3-Fc (Knob) with Mouse EBI3-(GGGGS)3-Fc (Hole/star) (Fc fusion)
chain 1: FPTDPLSLQELRREFTVSLYLARKLLSEVQGYVHSFAESRLPGVNLDLLPLGYHLPNVSLTFQAWHHLSDSERLCFLATTLRPFPAMLGGLGTQGTWTSSEREQLWAMRLDLRDLHRHLRFQVLAAGFKCSKEEEDKEEEEEEEEEEKKLPLGALGGPNQVSSQVSWPQLLYTYQLLHSLELVLSRAVRDLLLLSLPRRPGSAWDSGGGGSGGGGSGGGGSESKYGPPCPPCPAPPVAGPSVFLFPPKPKDTLMISRTPEVTCVVVDVSQEDPEVQFNWYVDGVEVHNAKTKPREEQFNSTYRVVSVLTVLHQDWLNGKEYKCKVSNKGLPSSIEKTISKAKGQPREPQVYTLPPSQEEMTKNQVSLWCLVKGFYPSDIAVEWESNGQPENNYKTTPPVLDSDGSFFLYSRLTVDKSRWQEGNVFSCSVMHEALHNHYTQKSLSLSLGK
chain 2: YTETALVALSQPRVQCHASRYPVAVDCSWTPLQAPNSTRSTSFIATYRLGVATQQQSQPCLQRSPQASRCTIPDVHLFSTVPYMLNVTAVHPGGASSSLLAFVAERIIKPDPPEGVRLRTAGQRLQVLWHPPASWPFPDIFSLKYRLRYRRRGASHFRQVGPIEATTFTLRNSKPHAKYCIQVSAQDLTDYGKPSDWSLPGQVESAPHKPGGGGSGGGGSGGGGSESKYGPPCPPCPAPPVAGPSVFLFPPKPKDTLMISRTPEVTCVVVDVSQEDPEVQFNWYVDGVEVHNAKTKPREEQFNSTYRVVSVLTVLHQDWLNGKEYKCKVSNKGLPSSIEKTISKAKGQPREPQVYTLPPSQEEMTKNQVSLSCAVKGFYPSDIAVEWESNGQPENNYKTTPPVLDSDGSFFLVSRLTVDKSRWQEGNVFSCSVMHEALHNRFTQKSLSLSPGK

- EC50 (M), STAT3 luciferase, MC9 cells [3]: 1.01e-09 M
- FOLD INDUCTION, STAT3 luciferase, MC9 cells [3]: 2.95 fold
- EC50, luciferase activity, MC9/STAT3-Luc reporter cells [2]: ~480 pM
- EC50, phosphorylation of STAT1 in CD4+ T-cells [2]: ~2 µg/mL
B3: IL27M1, Mouse EBI3-(GGGS)4-p28-(GGGGS)3-Fc (Fc fusion)
chain: YTETALVALSQPRVQCHASRYPVAVDCSWTPLQAPNSTRSTSFIATYRLGVATQQQSQPCLQRSPQASRCTIPDVHLFSTVPYMLNVTAVHPGGASSSLLAFVAERIIKPDPPEGVRLRTAGQRLQVLWHPPASWPFPDIFSLKYRLRYRRRGASHFRQVGPIEATTFTLRNSKPHAKYCIQVSAQDLTDYGKPSDWSLPGQVESAPHKPGGGSGGGSGGGSGGGSFPTDPLSLQELRREFTVSLYLARKLLSEVQGYVHSFAESRLPGVNLDLLPLGYHLPNVSLTFQAWHHLSDSERLCFLATTLRPFPAMLGGLGTQGTWTSSEREQLWAMRLDLRDLHRHLRFQVLAAGFKCSKEEEDKEEEEEEEEEEKKLPLGALGGPNQVSSQVSWPQLLYTYQLLHSLELVLSRAVRDLLLLSLPRRPGSAWDSGGGGSGGGGSGGGGSESKYGPPCPPCPAPPVAGPSVFLFPPKPKDTLMISRTPEVTCVVVDVSQEDPEVQFNWYVDGVEVHNAKTKPREEQFNSTYRVVSVLTVLHQDWLNGKEYKCKVSNKGLPSSIEKTISKAKGQPREPQVYTLPPSQEEMTKNQVSLTCLVKGFYPSDIAVEWESNGQPENNYKTTPPVLDSDGSFFLYSRLTVDKSRWQEGNVFSCSVMHEALHNHYTQKSLSLSLGK
